Data taken from the supplement of paper PMC7125110.
± gives the standard error. For some assays here: Fewer inactive variants are shown than the library holds.

B1: glmS ribozyme (parent)
chain: AUAAAAGCGCCAGAACUACAGAAAUGUAGUUGACGAGGAGGAGGUUUAUCGAAUUUUCGGCGGAUGCCUCCAAA

Experiments:
Conditions in all cases: with glucosamine-6-phosphate
glucosamine-6-phosphate [1] = variants of: B1; assay: kcat; higher = faster cleavage; RNA array
How it was run: (§1)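 On sequenced MiSeq chips, barcoded ribozyme variants were made in situ by E. coli RNA polymerase and followed at 37 °C through a hybridised Cy3 probe. Glucosamine-6-phosphate was flowed in at 40 μM to 10 mM in HEPES/KCl/Mg(OAc)2 buffer. Exponential fits to normalised per-tile medians gave kobs, and weighted Michaelis–Menten fits gave kcat and KM.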

glucosamine-6-phosphate [2] = variants of: B1; assay: self-cleavage kobs at 40 uM GlcN6P; higher = faster cleavage; RNA array
How it was run: as §1

glucosamine-6-phosphate [3] = variants of: B1; assay: self-cleavage kobs at 160 uM GlcN6P; higher = faster cleavage; RNA array
How it was run: as §1

glucosamine-6-phosphate [4] = variants of: B1; assay: self-cleavage kobs at 640 uM GlcN6P; higher = faster cleavage; RNA array
How it was run: as §1

glucosamine-6-phosphate [5] = variants of: B1; assay: self-cleavage kobs at 2500 uM GlcN6P; higher = faster cleavage; RNA array
How it was run: as §1

glucosamine-6-phosphate [6] = variants of: B1; assay: self-cleavage kobs at 10000 uM GlcN6P; higher = faster cleavage; RNA array
How it was run: as §1

glucosamine-6-phosphate [7] = variants of: B1; assay: KM; higher = weaker cofactor use; RNA array
How it was run: as §1

Variant | kcat (glucosamine-6-phosphate [1]) | self-cleavage kobs at 40 uM GlcN6P (glucosamine-6-phosphate [2]) | self-cleavage kobs at 160 uM GlcN6P (glucosamine-6-phosphate [3]) | self-cleavage kobs at 640 uM GlcN6P (glucosamine-6-phosphate [4]) | self-cleavage kobs at 2500 uM GlcN6P (glucosamine-6-phosphate [5]) | self-cleavage kobs at 10000 uM GlcN6P (glucosamine-6-phosphate [6]) | KM (glucosamine-6-phosphate [7])
U45G U54G | 0.0116 ± 0.0048 s⁻¹ | 0.000213 ± 3.6e-05 s⁻¹ | 0.000252 ± 9.5e-05 s⁻¹ | 0.00187 ± 0.00046 s⁻¹ | 0.00436 ± 0.0015 s⁻¹ | 0.0084 ± 0.0012 s⁻¹ | 
U45C U55A | 0.00681 ± 0.0026 s⁻¹ | 5.89e-05 ± 1.4e-05 s⁻¹ |  | 0.000581 ± 0.00013 s⁻¹ | 0.00182 ± 0.00067 s⁻¹ | 0.00457 ± 0.0012 s⁻¹ | 5900 ± 2800 µM
U47C G51U | < 1e-05 s⁻¹ |  |  | < 1e-05 s⁻¹ |  | < 1e-05 s⁻¹ | 
U47G C50G C68U | 6.02e-05 ± 2e-05 s⁻¹ |  | 7.17e-05 ± 9.5e-06 s⁻¹ |  | 7.59e-05 ± 1.6e-05 s⁻¹ | 3.03e-05 ± 1.3e-05 s⁻¹ | 
U46A C71G | 0.00042 ± 3.7e-05 s⁻¹ |  | 4.33e-05 ± 1.2e-05 s⁻¹ | 9.39e-05 ± 1.2e-05 s⁻¹ | 0.00025 ± 3.5e-05 s⁻¹ | 0.000346 ± 3.2e-05 s⁻¹ | 2020 ± 370 µM
U46A C61A | 1.2e-05 ± 3e-07 s⁻¹ |  |  |  |  |  | 1800 ± 100 µM
U46C C70A | 0.000216 ± 5.4e-05 s⁻¹ |  | 5.11e-05 ± 2.3e-05 s⁻¹ | 0.000105 ± 1.7e-05 s⁻¹ | 0.000151 ± 2.5e-05 s⁻¹ | 0.000347 ± 8.7e-05 s⁻¹ | 
A48C G66U | 2.77e-05 ± 2.1e-07 s⁻¹ |  |  |  |  |  | 2750 ± 61 µM
U47G C70G | 0.000127 ± 1.9e-05 s⁻¹ | 5.74e-05 ± 9e-06 s⁻¹ | 0.000147 ± 2.1e-05 s⁻¹ | 0.000101 ± 1.2e-05 s⁻¹ | 0.000138 ± 1.5e-05 s⁻¹ |  | 
A48C A53G | 0.000334 ± 1.5e-05 s⁻¹ |  |  | 7.49e-05 ± 1.2e-05 s⁻¹ | 0.000187 ± 2.9e-05 s⁻¹ | 0.000272 ± 3.6e-05 s⁻¹ | 2130 ± 190 µM
U45G C71G | 0.000564 ± 5.3e-05 s⁻¹ |  | 3.29e-05 ± 1.3e-05 s⁻¹ | 0.000112 ± 1.2e-05 s⁻¹ | 0.000322 ± 5.2e-05 s⁻¹ | 0.000432 ± 6.3e-05 s⁻¹ | 2510 ± 370 µM
U46C U69A | 0.000242 ± 4.8e-05 s⁻¹ |  | 5.58e-05 ± 2.2e-05 s⁻¹ | 9.77e-05 ± 2.8e-05 s⁻¹ | 0.000199 ± 6.1e-05 s⁻¹ | 0.000243 ± 6.5e-05 s⁻¹ | 686 ± 310 µM
U46G U56C | 0.00203 ± 0.0005 s⁻¹ |  | 4.23e-05 ± 2.1e-05 s⁻¹ |  | 0.000799 ± 0.00013 s⁻¹ | 0.00131 ± 0.00016 s⁻¹ | 4990 ± 2300 µM
U46G U56G | 0.00393 ± 0.00066 s⁻¹ | 8.55e-05 ± 1.5e-05 s⁻¹ | 0.000353 ± 0.00012 s⁻¹ | 0.00128 ± 0.00033 s⁻¹ | 0.00271 ± 0.00083 s⁻¹ | 0.0029 ± 0.001 s⁻¹ | 1690 ± 350 µM
U47G U55A | 0.00811 ± 0.0025 s⁻¹ | 0.000281 ± 3.1e-05 s⁻¹ | 0.000855 ± 0.00014 s⁻¹ | 0.00187 ± 0.00028 s⁻¹ | 0.00514 ± 0.00081 s⁻¹ | 0.00878 ± 0.0013 s⁻¹ | 1410 ± 600 µM
A48U C58G | 1.01e-05 ± 4e-06 s⁻¹ |  |  |  |  |  | 

Variant | kcat (glucosamine-6-phosphate [1]) | self-cleavage kobs at 40 uM GlcN6P (glucosamine-6-phosphate [2]) | self-cleavage kobs at 160 uM GlcN6P (glucosamine-6-phosphate [3]) | self-cleavage kobs at 640 uM GlcN6P (glucosamine-6-phosphate [4]) | self-cleavage kobs at 2500 uM GlcN6P (glucosamine-6-phosphate [5]) | self-cleavage kobs at 10000 uM GlcN6P (glucosamine-6-phosphate [6]) | KM (glucosamine-6-phosphate [7])
U45A C67U | 0.0622 ± 0.028 s⁻¹ | 0.00106 ± 0.00014 s⁻¹ | 0.00246 ± 0.00047 s⁻¹ | 0.0118 ± 0.0023 s⁻¹ | 0.033 ± 0.01 s⁻¹ | 0.0465 ± 0.014 s⁻¹ | 
U45G U65C | 9.08e-05 ± 1.1e-05 s⁻¹ |  |  |  | 4.24e-05 ± 1.4e-05 s⁻¹ | 6.91e-05 ± 1.3e-05 s⁻¹ | 3060 ± 1100 µM
U47G A48U | 0.000199 ± 1.8e-05 s⁻¹ |  | 3.01e-05 ± 1.4e-05 s⁻¹ | 8.89e-05 ± 1.5e-05 s⁻¹ | 0.000128 ± 2e-05 s⁻¹ | 0.000196 ± 2.4e-05 s⁻¹ | 905 ± 230 µM
U47G A48G | 8.61e-05 ± 8.6e-06 s⁻¹ |  |  | 4.31e-05 ± 1.6e-05 s⁻¹ | 8.59e-05 ± 1.7e-05 s⁻¹ | 7.67e-05 ± 1.3e-05 s⁻¹ | 
U46G A52G | 0.00059 ± 3.1e-05 s⁻¹ |  |  | 5.26e-05 ± 1.6e-05 s⁻¹ | 0.000185 ± 9.1e-05 s⁻¹ | 0.00036 ± 4.6e-05 s⁻¹ | 6370 ± 650 µM
U46A U56G | 0.00195 ± 0.00071 s⁻¹ |  | 9.87e-05 ± 1.5e-05 s⁻¹ | 0.000283 ± 6.8e-05 s⁻¹ | 0.000603 ± 0.00011 s⁻¹ | 0.00183 ± 0.00029 s⁻¹ | 
U49C C67U | 1e-05 ± 1e-06 s⁻¹ |  |  |  |  |  | 267 ± 130 µM
U46G A64G | 0.0154 ± 0.0048 s⁻¹ | 0.000157 ± 2.3e-05 s⁻¹ |  | 0.00216 ± 0.00079 s⁻¹ | 0.00387 ± 0.001 s⁻¹ | 0.0119 ± 0.0016 s⁻¹ | 4300 ± 1900 µM
U47C C71A | 0.00134 ± 0.00043 s⁻¹ | 4.8e-05 ± 2e-05 s⁻¹ | 4.4e-05 ± 1.9e-05 s⁻¹ | 0.000204 ± 4.2e-05 s⁻¹ | 0.000441 ± 0.00011 s⁻¹ | 0.00101 ± 0.00017 s⁻¹ | 
U47C C71G | 0.000277 ± 6.2e-05 s⁻¹ |  |  | 0.000116 ± 1.9e-05 s⁻¹ | 0.000253 ± 3.8e-05 s⁻¹ | 0.000197 ± 5.1e-05 s⁻¹ | 
U45A A53C | 0.0341 ± 0.0078 s⁻¹ | 0.000466 ± 8.3e-05 s⁻¹ | 0.00139 ± 0.00027 s⁻¹ | 0.00608 ± 0.00081 s⁻¹ | 0.017 ± 0.0047 s⁻¹ | 0.0239 ± 0.0068 s⁻¹ | 3160 ± 860 µM
U45A A53U | 0.054 ± 0.013 s⁻¹ | 0.00125 ± 0.00017 s⁻¹ | 0.00351 ± 0.0016 s⁻¹ | 0.0162 ± 0.0071 s⁻¹ | 0.0671 ± 0.03 s⁻¹ | 0.0432 ± 0.012 s⁻¹ | 1720 ± 500 µM
U46G U69G | 7.96e-05 ± 5.9e-06 s⁻¹ | 5.51e-05 ± 9.4e-06 s⁻¹ | 7.35e-05 ± 1.7e-05 s⁻¹ | 0.000111 ± 1.6e-05 s⁻¹ | 7.44e-05 ± 1.1e-05 s⁻¹ | 7.71e-05 ± 5.3e-06 s⁻¹ | 
U45A A48G | 0.000299 ± 7.2e-05 s⁻¹ |  |  | 8.14e-05 ± 1.3e-05 s⁻¹ | 0.00033 ± 4.4e-05 s⁻¹ | 0.00024 ± 2.6e-05 s⁻¹ | 
U49C C71G | 1.02e-05 ± 5.3e-07 s⁻¹ |  |  |  |  |  | 
